Changes are numbered by the printed parent chain.
B1: NRC3_random_hg19_305_o1 (dsDNA)
DNA 1: GCGACTGCACTCCAGCCTGGGCAATAGAGTGAGACTGCGATTGACAGCGTAGAATGAAGG
DNA 2: CCTTCATTCTACGCTGTCAATCGCAGTCTCACTCTATTGCCCAGGCTGGAGTGCAGTCGC
B2: NRC3_wobSeed36_DR1_C23G_o1 (dsDNA)
DNA 1: GCCCGACTGGGGCAAAGGTTACGATACTCAGTACGAGCGATTGACAGCGTAGAATGAAGG
DNA 2: CCTTCATTCTACGCTGTCAATCGCTCGTACTGAGTATCGTAACCTTTGCCCCAGTCGGGC
B3: NRC3_random_hg19_118_o1 (dsDNA)
DNA 1: GCTTGTCACTTGTCATTCCTGCCAAGAGAGCTCTATGCGATTGACAGCGTAGAATGAAGG
DNA 2: CCTTCATTCTACGCTGTCAATCGCATAGAGCTCTCTTGGCAGGAATGACAAGTGACAAGC
B4: NRC3_random_hg19_235_o1 (dsDNA)
DNA 1: GCGCTGGGAGGCAACTGCCATTGGCATGCCATGCCAGCGATTGACAGCGTAGAATGAAGG
DNA 2: CCTTCATTCTACGCTGTCAATCGCTGGCATGGCATGCCAATGGCAGTTGCCTCCCAGCGC
B5: NRC3_wobSeed36_DR1_G5C_o1 (dsDNA)
DNA 1: B2 DNA 1 with G5C, G23C
DNA 2: B2 DNA 2 with C38G, C56G
B6: NRC3_random_hg19_131_o1 (dsDNA)
DNA 1: GCTCCCTCAAGCTCTCTGAATCTCAGAGTCAGCATCGCGATTGACAGCGTAGAATGAAGG
DNA 2: CCTTCATTCTACGCTGTCAATCGCGATGCTGACTCTGAGATTCAGAGAGCTTGAGGGAGC
B7: NRC3_wobSeed29_DR1_T5A_o1 (dsDNA)
DNA 1: GCGCATACGGGTCAAAGGTTATAGCATGAATAGAATGCGATTGACAGCGTAGAATGAAGG
DNA 2: CCTTCATTCTACGCTGTCAATCGCATTCTATTCATGCTATAACCTTTGACCCGTATGCGC
B8: NRC3_wobSeed25_DR1_A23G_o1 (dsDNA)
DNA 1: GCCAAACTAGGTCAAAGGTCAAGGTCGAGCCAACCAGCGATTGACAGCGTAGAATGAAGG
DNA 2: CCTTCATTCTACGCTGTCAATCGCTGGTTGGCTCGACCTTGACCTTTGACCTAGTTTGGC
B9: NRC3_wobSeed29_DR1_A23G_o1 (dsDNA)
DNA 1: B7 DNA 1 with A5T, A23G
DNA 2: B7 DNA 2 with T38C, T56A
B10: NRC3_wobSeed33_DR1_A13C_o1 (dsDNA)
DNA 1: GCATCTCTAGGTCAAAGTTCAGTGAATCCCGAGGATGCGATTGACAGCGTAGAATGAAGG
DNA 2: CCTTCATTCTACGCTGTCAATCGCATCCTCGGGATTCACTGAACTTTGACCTAGAGATGC
B11: NRC3_wobSeed25_DR1_A22G_o1 (dsDNA)
DNA 1: B8 DNA 1 with A22G, G23A
DNA 2: B8 DNA 2 with C38T, T39C
B12: NRC3_wobSeed31_DR1_A13G_o1 (dsDNA)
DNA 1: GCTCATATAGGTGAAAGGTGAAAGTCGGTGTGGTAAGCGATTGACAGCGTAGAATGAAGG
DNA 2: CCTTCATTCTACGCTGTCAATCGCTTACCACACCGACTTTCACCTTTCACCTATATGAGC
B13: NRC3_wobSeed39_DR1_A19C_o1 (dsDNA)
DNA 1: GCCGAACTAGGTCAAAGGCCAGTGAAAGGCGACGTAGCGATTGACAGCGTAGAATGAAGG
DNA 2: CCTTCATTCTACGCTGTCAATCGCTACGTCGCCTTTCACTGGCCTTTGACCTAGTTCGGC
B14: NRC3_wobSeed39_DR1_G22C_o1 (dsDNA)
DNA 1: B13 DNA 1 with C19A, G22C
DNA 2: B13 DNA 2 with C39G, G42T
B15: NRC3_wobSeed30_DR1_C8T_o1 (dsDNA)
DNA 1: GCACTAGTAGGCCAAGGGTCACTCAAGATTAGTCCGGCGATTGACAGCGTAGAATGAAGG
DNA 2: CCTTCATTCTACGCTGTCAATCGCCGGACTAATCTTGAGTGACCCTTGGCCTACTAGTGC
B16: NRC3_wobSeed73_DR3_A4T_o1 (dsDNA)
DNA 1: GCCTAACTAGGTCACAGAGGTCAAAGTCCGTGCGTAGCGATTGACAGCGTAGAATGAAGG
DNA 2: CCTTCATTCTACGCTGTCAATCGCTACGCACGGACTTTGACCTCTGTGACCTAGTTAGGC
B17: NRC3_wobSeed25_DR1_A23C_o1 (dsDNA)
DNA 1: B8 DNA 1 with G23C
DNA 2: B8 DNA 2 with C38G
B18: NRC3_wobSeed97_DR4_G27A_o1 (dsDNA)
DNA 1: GCCAAACTAGGTCACGAAAGGTCAAAATCGAATGACGCGATTGACAGCGTAGAATGAAGG
DNA 2: CCTTCATTCTACGCTGTCAATCGCGTCATTCGATTTTGACCTTTCGTGACCTAGTTTGGC
B19: NRC3_wobSeed49_DR2_T26G_o1 (dsDNA)
DNA 1: GCCAAACTAGGTCAAGAGGTCAAAGGCCGCTTCCCGGCGATTGACAGCGTAGAATGAAGG
DNA 2: CCTTCATTCTACGCTGTCAATCGCCGGGAAGCGGCCTTTGACCTCTTGACCTAGTTTGGC
B20: NRC3_wobSeed97_DR4_C29T_o1 (dsDNA)
DNA 1: B18 DNA 1 with A27G, C29T
DNA 2: B18 DNA 2 with G32A, T34C
B21: NRC3_wobSeed97_DR4_C7G_o1 (dsDNA)
DNA 1: B18 DNA 1 with C7G, A27G
DNA 2: B18 DNA 2 with T34C, G54C
B22: NRC3_wobSeed97_DR4_A4T_o1 (dsDNA)
DNA 1: B18 DNA 1 with A4T, A27G
DNA 2: B18 DNA 2 with T34C, T57A
B23: NRC3_wobSeed42_DR1_A8T_o1 (dsDNA)
DNA 1: GCTATACTGGGTCAAAGGCCAGAGTACGAATGTCGAGCGATTGACAGCGTAGAATGAAGG
DNA 2: CCTTCATTCTACGCTGTCAATCGCTCGACATTCGTACTCTGGCCTTTGACCCAGTATAGC
B24: NRC3_wobSeed31_DR1_A13T_o1 (dsDNA)
DNA 1: B12 DNA 1 with G13T
DNA 2: B12 DNA 2 with C48A
B25: NRC3_wobSeed33_DR1_A13G_o1 (dsDNA)
DNA 1: B10 DNA 1 with C13G
DNA 2: B10 DNA 2 with G48C
B26: NRC3_wobSeed49_DR2_A15C_o1 (dsDNA)
DNA 1: B19 DNA 1 with A15C, G26T
DNA 2: B19 DNA 2 with C35A, T46G
B27: NRC3_wobSeed121_DR5_C7G_o1 (dsDNA)
DNA 1: GCCAAAGTAGGTCACCGGAAGGTCAAAGTCCGCATGGCGATTGACAGCGTAGAATGAAGG
DNA 2: CCTTCATTCTACGCTGTCAATCGCCATGCGGACTTTGACCTTCCGGTGACCTACTTTGGC
B28: NRC3_wobSeed30_DR1_G16A_o1 (dsDNA)
DNA 1: B15 DNA 1 with T8C, G16A
DNA 2: B15 DNA 2 with C45T, A53G
B29: NRC3_wobSeed65_DR2_T13C_o1 (dsDNA)
DNA 1: GCATATGTAGGTCATCGGGTCATTCAGTTTGCGCATGCGATTGACAGCGTAGAATGAAGG
DNA 2: CCTTCATTCTACGCTGTCAATCGCATGCGCAAACTGAATGACCCGATGACCTACATATGC
B30: NRC3_wobSeed121_DR5_A4T_o1 (dsDNA)
DNA 1: B27 DNA 1 with A4T, G7C
DNA 2: B27 DNA 2 with C54G, T57A
B31: NRC3_wobSeed1_DR0_G23T_o1 (dsDNA)
DNA 1: GCCAAACTAGGTCAAGGTCAAATTCGGTTTGTGCCAGCGATTGACAGCGTAGAATGAAGG
DNA 2: CCTTCATTCTACGCTGTCAATCGCTGGCACAAACCGAATTTGACCTTGACCTAGTTTGGC
B32: NRC3_wobSeed27_DR1_C6T_o1 (dsDNA)
DNA 1: GCACTTGGAGGACAAAGGTCAGAGCTACGCCAGTGAGCGATTGACAGCGTAGAATGAAGG
DNA 2: CCTTCATTCTACGCTGTCAATCGCTCACTGGCGTAGCTCTGACCTTTGTCCTCCAAGTGC
B33: NRC3_wobSeed33_DR1_C5A_o1 (dsDNA)
DNA 1: B10 DNA 1 with C5A, C13A
DNA 2: B10 DNA 2 with G48T, G56T
B34: NRC3_wobSeed1_DR0_C7G_o1 (dsDNA)
DNA 1: B31 DNA 1 with C7G, T23G
DNA 2: B31 DNA 2 with A38C, G54C

Biological target: PPARg:RXRa (Homo sapiens, UniProt P37231;P19793 full;full)
Assay: no ligand; PBM; 180 nM : 90 nM RXRa; PBS pH 7.4, 2% milk, 0.02% Triton X-100, 1 mM DTT, BSA, 0.4 mg/ml salmon testes DNA
Settings: tags: His kept;His cleaved; copies: 1;1; label: surface-attached array probe

Sequence of PPARg:RXRa (P37231 29-505, chain 1 of 2): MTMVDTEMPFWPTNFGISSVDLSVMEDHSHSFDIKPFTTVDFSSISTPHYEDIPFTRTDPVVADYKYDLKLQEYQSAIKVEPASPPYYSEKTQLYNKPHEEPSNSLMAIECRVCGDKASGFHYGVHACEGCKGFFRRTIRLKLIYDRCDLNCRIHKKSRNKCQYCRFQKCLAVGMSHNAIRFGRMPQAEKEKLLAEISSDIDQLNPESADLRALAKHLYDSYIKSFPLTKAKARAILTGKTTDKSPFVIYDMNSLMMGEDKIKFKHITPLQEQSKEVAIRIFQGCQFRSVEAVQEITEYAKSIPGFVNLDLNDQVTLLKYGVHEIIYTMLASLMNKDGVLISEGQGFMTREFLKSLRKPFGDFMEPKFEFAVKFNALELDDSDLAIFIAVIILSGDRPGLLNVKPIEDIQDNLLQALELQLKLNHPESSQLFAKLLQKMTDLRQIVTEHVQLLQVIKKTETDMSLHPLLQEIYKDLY
Sequence of PPARg:RXRa (P19793 whole entry, chain 2 of 2): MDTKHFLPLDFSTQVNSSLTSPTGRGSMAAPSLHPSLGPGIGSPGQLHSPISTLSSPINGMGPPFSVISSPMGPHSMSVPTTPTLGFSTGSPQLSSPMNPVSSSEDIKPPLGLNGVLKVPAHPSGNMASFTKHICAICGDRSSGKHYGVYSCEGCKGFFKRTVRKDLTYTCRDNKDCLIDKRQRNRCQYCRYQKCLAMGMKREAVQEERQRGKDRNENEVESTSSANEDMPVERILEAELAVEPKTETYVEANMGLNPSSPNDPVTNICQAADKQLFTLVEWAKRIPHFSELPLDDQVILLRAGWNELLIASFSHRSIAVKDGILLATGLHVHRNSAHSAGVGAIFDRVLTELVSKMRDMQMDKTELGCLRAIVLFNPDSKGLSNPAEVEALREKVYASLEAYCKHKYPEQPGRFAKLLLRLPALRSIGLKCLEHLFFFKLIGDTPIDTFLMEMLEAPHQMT

Row | Binder | binding signal
1 | B1 | -0.27 PBM z-score against 500 random probes
2 | B2 | 12.2 PBM z-score against 500 random probes
3 | B3 | -0.38 PBM z-score against 500 random probes
4 | B4 | -0.53 PBM z-score against 500 random probes
5 | B5 | 12.2 PBM z-score against 500 random probes
6 | B6 | -0.66 PBM z-score against 500 random probes
7 | B7 | 12.2 PBM z-score against 500 random probes
8 | B8 | 14.4 PBM z-score against 500 random probes
9 | B9 | 12 PBM z-score against 500 random probes
10 | B10 | 11.7 PBM z-score against 500 random probes
11 | B11 | 14.2 PBM z-score against 500 random probes
12 | B12 | 11.6 PBM z-score against 500 random probes
13 | B13 | 11.3 PBM z-score against 500 random probes
14 | B14 | 11.2 PBM z-score against 500 random probes
15 | B15 | 10.9 PBM z-score against 500 random probes
16 | B16 | 10.9 PBM z-score against 500 random probes
17 | B17 | 14.2 PBM z-score against 500 random probes

Row | Binder | binding signal
18 | B18 | 10.9 PBM z-score against 500 random probes
19 | B19 | 10.9 PBM z-score against 500 random probes
20 | B20 | 10.9 PBM z-score against 500 random probes
21 | B21 | 10.8 PBM z-score against 500 random probes
22 | B22 | 10.8 PBM z-score against 500 random probes
23 | B23 | 10.8 PBM z-score against 500 random probes
24 | B24 | 10.8 PBM z-score against 500 random probes
25 | B25 | 10.7 PBM z-score against 500 random probes
26 | B26 | 10.5 PBM z-score against 500 random probes
27 | B27 | 10.4 PBM z-score against 500 random probes
28 | B28 | 10.2 PBM z-score against 500 random probes
29 | B29 | 10.2 PBM z-score against 500 random probes
30 | B30 | 10.2 PBM z-score against 500 random probes
31 | B31 | 10.2 PBM z-score against 500 random probes
32 | B32 | 10.1 PBM z-score against 500 random probes
33 | B33 | 10.1 PBM z-score against 500 random probes
34 | B34 | 10 PBM z-score against 500 random probes

From publication PMC6555819, “Comprehensive study of nuclear receptor DNA binding provides a revised framework for understanding receptor specificity”
